Experiment [1] concerns the target FLAG-tagged human Ang2 (human) (UniProt O15123). The experiment can be described thus: competition ELISA: blocking of FLAG-hAng2 binding to coated hTie2-Fc. For orientation: ELISA stands for enzyme-linked immunosorbent assay.
Experiment [2] deals with FLAG-tagged mouse Ang2 (mouse) (UniProt O35608). The experiment can be described thus: competition ELISA: FLAG-mAng2 binding to coated mTie2-Fc, residual mAng2 detected with anti-FLAG-HRP.
Experiment [3] shares this target. Described as above. The source holds these as a separate data set.
The target of experiment [4] is FLAG-tagged human Ang2 (human) (UniProt O15123). Put plainly: competition ELISA: blocking of FLAG-hAng2 binding to coated hTie2-Fc. This is another data set of the same source.
Sequence of FLAG-tagged human Ang2 (human) (O15123 19-496): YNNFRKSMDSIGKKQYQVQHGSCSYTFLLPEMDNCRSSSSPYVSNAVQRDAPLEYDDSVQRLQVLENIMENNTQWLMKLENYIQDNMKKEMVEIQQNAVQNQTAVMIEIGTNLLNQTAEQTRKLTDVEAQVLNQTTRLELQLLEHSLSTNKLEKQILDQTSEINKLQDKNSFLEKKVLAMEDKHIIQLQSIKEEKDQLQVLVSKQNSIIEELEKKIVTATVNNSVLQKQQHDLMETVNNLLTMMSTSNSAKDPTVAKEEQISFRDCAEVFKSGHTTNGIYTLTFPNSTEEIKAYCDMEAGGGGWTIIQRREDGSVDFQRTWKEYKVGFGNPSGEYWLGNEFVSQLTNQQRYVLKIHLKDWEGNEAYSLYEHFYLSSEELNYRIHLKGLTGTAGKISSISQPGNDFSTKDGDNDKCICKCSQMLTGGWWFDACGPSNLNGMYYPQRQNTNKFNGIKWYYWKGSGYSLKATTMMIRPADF
In experiment [5] the target is FLAG-tagged mouse Ang2 (mouse) (UniProt O35608). Put plainly: competition ELISA: FLAG-mAng2 binding to coated mTie2-Fc, residual mAng2 detected with anti-FLAG-HRP. The source holds these as a separate data set.
The target of experiment [6] is FLAG-tagged human Ang2 (human) (UniProt O15123). The experiment can be described thus: competition ELISA: FLAG-hAng2 binding to coated hTie2-Fc, residual hAng2 detected with anti-FLAG-HRP.
Experiment [7] has the same target. The experiment is described as above. The source holds these as a separate data set.
Experiment [8] shares this target. The experiment can be described thus: competition ELISA: blocking of FLAG-hAng2 binding to coated hTie2-Fc. The source holds these as a separate data set.
Experiment [9] shares this target. Put plainly: competition ELISA: FLAG-hAng2 binding to coated hTie2-Fc, residual hAng2 detected with anti-FLAG-HRP. The source holds these as a separate data set.
Experiment [10] concerns the target FLAG-tagged mouse Ang2 (mouse) (UniProt O35608). The experiment can be described thus: competition ELISA: blocking of FLAG-mAng2 binding to coated mTie2-Fc.
The target of experiment [11] is FLAG-tagged cynomolgus Ang2 (cynomolgus). The experiment can be described thus: competition ELISA: FLAG-cAng2 binding to coated cTie2-Fc, residual cAng2 detected with anti-FLAG-HRP.
Sequence of FLAG-tagged cynomolgus Ang2 (cynomolgus) (O15123 other isoform, or with tags, fused parts or gaps limits assumed): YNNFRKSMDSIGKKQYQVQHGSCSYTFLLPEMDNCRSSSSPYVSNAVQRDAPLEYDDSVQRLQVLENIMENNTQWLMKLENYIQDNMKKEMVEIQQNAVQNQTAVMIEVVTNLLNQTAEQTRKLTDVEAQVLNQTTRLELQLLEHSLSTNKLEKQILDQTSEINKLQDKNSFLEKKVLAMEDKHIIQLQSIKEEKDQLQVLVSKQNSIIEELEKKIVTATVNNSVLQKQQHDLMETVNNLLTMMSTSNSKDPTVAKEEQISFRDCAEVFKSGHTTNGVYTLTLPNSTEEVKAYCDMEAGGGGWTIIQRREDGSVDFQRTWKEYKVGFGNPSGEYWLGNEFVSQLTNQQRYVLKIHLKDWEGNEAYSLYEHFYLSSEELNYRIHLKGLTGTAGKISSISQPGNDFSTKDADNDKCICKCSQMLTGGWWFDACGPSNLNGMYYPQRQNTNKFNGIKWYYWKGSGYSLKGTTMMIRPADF
The target of experiment [12] is FLAG-tagged human Ang2 (human) (UniProt O15123). Put plainly: competition ELISA: blocking of FLAG-hAng2 binding to coated hTie2-Fc. This is another data set of the same source.
Experiment [13] addresses FLAG-tagged cynomolgus Ang2 (cynomolgus). The experiment can be described thus: competition ELISA: blocking of FLAG-cAng2 binding to coated cTie2-Fc.
For experiment [14], the target named is FLAG-tagged human Ang2 (human) (UniProt O15123). The experiment can be described thus: competition ELISA: FLAG-hAng2 binding to coated hTie2-Fc, residual hAng2 detected with anti-FLAG-HRP. The source holds these as a separate data set.

The record followed here is patent US20230203146A1.

Sequence of FLAG-tagged mouse Ang2 (mouse) (O35608 19-496 limits assumed): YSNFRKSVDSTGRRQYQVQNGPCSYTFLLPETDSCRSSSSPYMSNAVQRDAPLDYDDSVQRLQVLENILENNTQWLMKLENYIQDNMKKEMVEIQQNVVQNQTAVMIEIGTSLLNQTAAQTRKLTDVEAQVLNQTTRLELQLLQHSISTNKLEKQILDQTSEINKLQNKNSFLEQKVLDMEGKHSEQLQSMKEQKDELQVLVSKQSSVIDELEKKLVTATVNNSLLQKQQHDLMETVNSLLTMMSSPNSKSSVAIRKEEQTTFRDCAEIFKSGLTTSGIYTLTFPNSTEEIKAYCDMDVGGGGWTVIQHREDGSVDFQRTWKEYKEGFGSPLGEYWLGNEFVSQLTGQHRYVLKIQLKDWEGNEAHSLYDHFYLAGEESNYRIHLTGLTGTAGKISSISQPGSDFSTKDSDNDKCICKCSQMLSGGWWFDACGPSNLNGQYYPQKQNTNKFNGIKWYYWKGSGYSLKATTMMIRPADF

Regarding AMG386 (Fc fusion), the IC50 (read off the curve) in experiment [1] came out at 5 pM; in experiment [2], 7 pM; in experiment [3] it was 3 pM; in experiment [4], 3 pM; in experiment [5], 4 pM; in [6], 5 pM. The IC50 (read off the curve) was 3 pM in experiment [7]; 0.5 pM in [8]; 2 pM in [9]; 6 pM in experiment [10]; 10 pM in experiment [11]; 4 pM in experiment [12]. The IC50 (read off the curve) came out at 1 pM in experiment [13] and 6 pM in [14].
